These results are taken from the supplement of paper PMC9112550, “Optimization of the antimicrobial peptide Bac7 by deep mutational scanning” (BMC Biology, 2022).

This data set concerns Escherichia coli TOP10. In words: shrunken log2 fold change of peptide-encoding DNA abundance (4.5 h post-induction vs induction); higher = less antimicrobial activity (less host growth inhibition). The note with it: time post-induction: 4.5 h; library: site-saturation at positions 5, 18, 19, 20.
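Further: peptides expressed intracellularly from a pBAD plasmid library in pooled LB shake-flask culture, induced with 0.3% L-arabinose, DNA abundance read by NGS, three biological replicates, DESeq2 with apeglm shrinkage.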

With RRIRQRPPRLPRPRPRPGVHPRP, the “shrunken log2 fold change” value turned out to be 0.0118. In the case of RRIRHRPPRLPRPRPRPSFRPRP it was -0.15. In the case of RRIRQRPPRLPRPRPRPGYFPRP it was 0.0104; in that of RRIRGRPPRLPRPRPRPSWVPRP, 0.0128; in that of RRIRPRPPRLPRPRPRPPAWPRP, 0.452. In the case of RRIRERPPRLPRPRPRPVIDPRP it was -0.0264; in that of RRIRGRPPRLPRPRPRPMRCPRP, 0.581. For the sequence RRIRLRPPRLPRPRPRPWPGPRP, the “shrunken log2 fold change” value worked out at 0.0987. Take RRIRGRPPRLPRPRPRPYASPRP: the “shrunken log2 fold change” value amounted to 0.143. The same measure for RRIRFRPPRLPRPRPRPWIAPRP: -0.0534. In the case of RRIRIRPPRLPRPRPRPHWIPRP it was -0.157; in that of RRIRIRPPRLPRPRPRPVKDPRP, -0.00153; in that of RRIRSRPPRLPRPRPRPKRAPRP, 0.326.

As to RRIRFRPPRLPRPRPRPPPDPRP, the “shrunken log2 fold change” value came out at 1.3.

On to RRIRTRPPRLPRPRPRPQAQPRP, for which the “shrunken log2 fold change” value was found to be 0.017.

As for RRIRCRPPRLPRPRPRPNGDPRP, the “shrunken log2 fold change” value was 0.105. In the case of RRIRMRPPRLPRPRPRPCEVPRP it was -0.181; in that of RRIRPRPPRLPRPRPRPNMRPRP, 0.272; in that of RRIRARPPRLPRPRPRPYVWPRP, 0.053. In the case of RRIRRRPPRLPRPRPRPDSDPRP it was 0.021; in that of RRIRQRPPRLPRPRPRPGISPRP, 0.0461. In the case of RRIRWRPPRLPRPRPRPQAYPRP it was 0.0869; in that of RRIRNRPPRLPRPRPRPNICPRP, -0.0714.

Take RRIRERPPRLPRPRPRPMDNPRP: the “shrunken log2 fold change” value is -0.626.

Regarding RRIRGRPPRLPRPRPRPGICPRP, the “shrunken log2 fold change” value is 0.808. The same measure for RRIRPRPPRLPRPRPRPDDPPRP: -0.0693; for RRIRMRPPRLPRPRPRPKMWPRP: 0.643. In the case of RRIRWRPPRLPRPRPRPYNTPRP it was -0.162; in that of RRIRCRPPRLPRPRPRPLGYPRP, 0.0405; in that of RRIRWRPPRLPRPRPRPEWTPRP, 0.0673. In the case of RRIRIRPPRLPRPRPRPINAPRP it was -0.431.

Regarding RRIRPRPPRLPRPRPRPNLVPRP, the “shrunken log2 fold change” value is -0.225. As to RRIRSRPPRLPRPRPRPSGFPRP, the “shrunken log2 fold change” value amounted to 0.0519.

Consider RRIRPRPPRLPRPRPRPDKRPRP, for which the “shrunken log2 fold change” value is 0.00792. On to RRIRFRPPRLPRPRPRPVRDPRP, for which the “shrunken log2 fold change” value was 1.66.

Consider RRIRVRPPRLPRPRPRPEPQPRP, for which the “shrunken log2 fold change” value came out at 0.363.

Take RRIRVRPPRLPRPRPRPSFSPRP: the “shrunken log2 fold change” value is -0.498. In the case of RRIRTRPPRLPRPRPRPTGTPRP it was -0.0721.

Consider RRIRQRPPRLPRPRPRPHVRPRP, for which the “shrunken log2 fold change” value was -0.00149.

Turning to RRIRTRPPRLPRPRPRPTKWPRP, the “shrunken log2 fold change” value was -0.0752. RRIRKRPPRLPRPRPRPEMDPRP: the “shrunken log2 fold change” value turned out to be 0.0842. In the case of RRIRFRPPRLPRPRPRPAKEPRP it was 0.0148; in that of RRIRMRPPRLPRPRPRPFREPRP, 0.2; in that of RRIRWRPPRLPRPRPRPWPEPRP, 0.167. In the case of RRIRWRPPRLPRPRPRPPSVPRP it was 0.171; in that of RRIRVRPPRLPRPRPRPYCLPRP, -0.564; in that of RRIRDRPPRLPRPRPRPHPVPRP, -0.0422. Turning to RRIRGRPPRLPRPRPRPPSMPRP, the “shrunken log2 fold change” value was determined as 0.593. Regarding RRIRVRPPRLPRPRPRPASLPRP, the “shrunken log2 fold change” value was -0.372. With RRIRWRPPRLPRPRPRPACNPRP, the “shrunken log2 fold change” value is -0.144.

Take RRIRYRPPRLPRPRPRPTVSPRP: the “shrunken log2 fold change” value is -0.288.

For RRIRFRPPRLPRPRPRPSRTPRP, the “shrunken log2 fold change” value is 0.0872. For RRIRIRPPRLPRPRPRPKVMPRP, the “shrunken log2 fold change” value is -0.206. In the case of RRIRRRPPRLPRPRPRPVCPPRP it was 0.32; in that of RRIRNRPPRLPRPRPRPMYAPRP, -0.192.

For the sequence RRIRCRPPRLPRPRPRPHFWPRP, the “shrunken log2 fold change” value came to 0.125. In the case of RRIRMRPPRLPRPRPRPHPRPRP it was 1.04; in that of RRIRDRPPRLPRPRPRPGVWPRP, 0.886. In the case of RRIRCRPPRLPRPRPRPHYNPRP it was -1.32; in that of RRIRERPPRLPRPRPRPPAPPRP, 0.569; in that of RRIRERPPRLPRPRPRPKEKPRP, 0.121. RRIRIRPPRLPRPRPRPKTSPRP: the “shrunken log2 fold change” value was -0.465.

As to RRIRVRPPRLPRPRPRPGCMPRP, the “shrunken log2 fold change” value was -0.076.

With RRIRSRPPRLPRPRPRPIAFPRP, the “shrunken log2 fold change” value is -0.388. In the case of RRIRERPPRLPRPRPRPKTSPRP it was -0.102. In the case of RRIRMRPPRLPRPRPRPNTDPRP it was -0.196.

Take RRIRWRPPRLPRPRPRPMGMPRP: the “shrunken log2 fold change” value was 0.403.

With RRIRKRPPRLPRPRPRPVLFPRP, the “shrunken log2 fold change” value came to 0.327.

Consider RRIRMRPPRLPRPRPRPPANPRP, for which the “shrunken log2 fold change” value amounted to 1.17. The same measure for RRIRVRPPRLPRPRPRPHPPPRP: 0.361; for RRIRVRPPRLPRPRPRPCIKPRP: -0.592.

For the sequence RRIRSRPPRLPRPRPRPEVSPRP, the “shrunken log2 fold change” value amounted to 0.214. In the case of RRIRKRPPRLPRPRPRPSLAPRP it was 0.614.

Take RRIRNRPPRLPRPRPRPKSYPRP: the “shrunken log2 fold change” value is -0.0423.

Take RRIRDRPPRLPRPRPRPPMEPRP: the “shrunken log2 fold change” value is -0.0667. In the case of RRIRMRPPRLPRPRPRPLNIPRP it was -0.163; in that of RRIRLRPPRLPRPRPRPQSEPRP, -0.0331; in that of RRIRGRPPRLPRPRPRPCVIPRP, 0.033.

With RRIRARPPRLPRPRPRPLIQPRP, the “shrunken log2 fold change” value was 0.0545.

Regarding RRIRYRPPRLPRPRPRPECDPRP, the “shrunken log2 fold change” value was -0.235. In the case of RRIRTRPPRLPRPRPRPAWQPRP, the “shrunken log2 fold change” value was -0.0092. In the case of RRIRQRPPRLPRPRPRPRYPPRP it was -0.0427; in that of RRIRGRPPRLPRPRPRPDERPRP, 0.104; in that of RRIRKRPPRLPRPRPRPTYCPRP, 0.135. For the sequence RRIRIRPPRLPRPRPRPAYPPRP, the “shrunken log2 fold change” value is -0.829. In the case of RRIRDRPPRLPRPRPRPDFYPRP it was 0.00164. In the case of RRIRYRPPRLPRPRPRPTRAPRP, the “shrunken log2 fold change” value was determined as 0.144.

With RRIRDRPPRLPRPRPRPSKWPRP, the “shrunken log2 fold change” value was -0.196. The same measure for RRIRRRPPRLPRPRPRPEWKPRP: 0.0796. In the case of RRIRPRPPRLPRPRPRPFFRPRP it was -0.0565. The same measure for RRIRRRPPRLPRPRPRPTPLPRP: 0.744.
